From patent US12139520B2 (priority 2020, dated 2024)
Numbered stars: 1 amine (or outer) side, 2 acyl side, 3 side chain; on linkers, the order of the positions; unused ones are H or OH. Bridge positions count the residues as written; N and C are the ends. Square brackets hold non-standard residues; d marks the D form. Side chains are listed from the residue outwards. Ends that are not written are not given here. * marks the point of attachment. C20 diacid = O=C(O)CCCCCCCCCCCCCCCCCCC(=O)*; γGlu = O=C(O)[C@H](CCC(=O)[*:2])N[*:1]; Hyp = O=C(O)[C@@H]1C[C@@H](O)CN1; NMeI = CC[C@H](C)[C@H](NC)C(=O)O; Aad = N[C@@H](CCCC(=O)O)C(=O)O; AEEA = NCCOCCOCC(=O)O; Sar = CNCC(=O)O

What follows are binders tested against T1, hAMY3R (human, UniProt P30988) (assay: cell-based or functional assay).
T1 sequence 1: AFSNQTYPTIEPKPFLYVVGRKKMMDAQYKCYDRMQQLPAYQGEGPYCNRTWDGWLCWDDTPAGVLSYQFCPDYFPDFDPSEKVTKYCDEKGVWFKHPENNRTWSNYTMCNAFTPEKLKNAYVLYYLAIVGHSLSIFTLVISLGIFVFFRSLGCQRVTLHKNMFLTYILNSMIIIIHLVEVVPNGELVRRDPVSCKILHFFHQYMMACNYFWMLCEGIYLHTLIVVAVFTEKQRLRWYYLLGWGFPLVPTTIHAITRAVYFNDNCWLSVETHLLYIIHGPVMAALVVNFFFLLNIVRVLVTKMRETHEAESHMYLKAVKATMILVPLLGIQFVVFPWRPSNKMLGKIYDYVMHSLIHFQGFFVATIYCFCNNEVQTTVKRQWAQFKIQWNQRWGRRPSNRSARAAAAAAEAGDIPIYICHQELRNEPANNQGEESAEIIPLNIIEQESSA
T1 sequence 2: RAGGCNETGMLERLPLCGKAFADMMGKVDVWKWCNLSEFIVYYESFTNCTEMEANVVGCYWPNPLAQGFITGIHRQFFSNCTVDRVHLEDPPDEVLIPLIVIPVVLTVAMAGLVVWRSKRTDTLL

Point of comparison: {C20 diacid-γGlu}-KCNTATCTVQRLAHQIYQFTDKDKDNVAPRTKVGSNG[Hyp] (disulfide 2-7 (inferred); ends not checked) [SEQ ID NO: 99], “hAMY3R EC50 (cAMP)” value 0.017 nM. Against it:
- {C20 diacid-γGlu}-KCNTATCTVQRLAHQIYQFTDKDKDNVAPPTNVGSNG[Hyp]-NH2 (disulfide 2-7 (inferred); not fully specified; ends not checked) [SEQ ID NO: 77] — within 1.5-fold, 0.014 nM
- RCNASTCTVNRLADQITQFSNKDKAQVSPPTEVGPNS[Hyp]-NH2 (disulfide 2-7 (inferred); ends not checked) [SEQ ID NO: 9] — 2.8-fold lower, 0.006 nM
- GCRFGTCTVQRLAHQIYQFTDKDKDNVAPRTNIGPNG[Hyp]-NH2 (disulfide 2-7 (inferred); ends not checked) [SEQ ID NO: 81] — within 1.5-fold, 0.015 nM
- {C20 diacid-γGlu}-KCNTSTCTVQRLAHQIAQFTDKDKDPVAPPTNVGSNG[Hyp]-NH2 (disulfide 2-7 (inferred); not fully specified; ends not checked) [SEQ ID NO: 88] — within 1.5-fold, 0.015 nM
- {C20 diacid-γGlu}-KCNTATCTVQRLAHQIAQFYDKDKDNVAPPTNVGSNG[Hyp]-NH2 (disulfide 2-7 (inferred); not fully specified; ends not checked) [SEQ ID NO: 94] — within 1.5-fold, 0.016 nM
- {C20 diacid-γGlu}-KCNTATCTVQRLAHQIAQFTDKDKDPVAPPTNVGSNG[Hyp]-NH2 (disulfide 2-7 (inferred); not fully specified; ends not checked) [SEQ ID NO: 92] — within 1.5-fold, 0.016 nM
- {C20 diacid-γGlu}-RCQTATCATERLAHFLQRSSF[Sar]A[NMeI]LSSTEVGSNT[Hyp]-NH2 (disulfide 2-7 (inferred); not fully specified; ends not checked) [SEQ ID NO: 80] — within 1.5-fold, 0.015 nM
- {C20 diacid-γGlu}-KCNTATCTVQRLAEQIYQFTDKDKDNVAPPTNVGSNT[Hyp]-NH2 (disulfide 2-7 (inferred); not fully specified; ends not checked) [SEQ ID NO: 96] — within 1.5-fold, 0.016 nM
- KCNTATCTVQRLAEQIYQFK([AEEA-AEEA-γGlu-C20 diacid])DKDKDNVAPPTNVGSNG[Hyp]-NH2 (disulfide 2-7 (inferred); not fully specified; ends not checked) [SEQ ID NO: 89] — within 1.5-fold, 0.015 nM
- {C20 diacid-γGlu}-KCNTATCTVQRLAHQIAQFTNKDKDNVAPPTNVGSNG[Hyp]-NH2 (disulfide 2-7 (inferred); not fully specified; ends not checked) [SEQ ID NO: 95] — within 1.5-fold, 0.016 nM
- {C20 diacid-γGlu}-KCNTATCTVQRLAHQIAQFSDKDKDNVAPPTNVGSNG[Hyp]-NH2 (disulfide 2-7 (inferred); not fully specified; ends not checked) [SEQ ID NO: 79] — within 1.5-fold, 0.014 nM
- KCNTSTCTVARLADQITQFSNKDKAQVSPPTEVGPNS[Hyp]-NH2 (disulfide 2-7 (inferred); ends not checked) [SEQ ID NO: 8] — 2.8-fold lower, 0.006 nM
- {C20 diacid-γGlu}-KCNTATCTVQRLAHQIYQFTDKNKDNVAPPTNVGSNG[Hyp]-NH2 (disulfide 2-7 (inferred); not fully specified; ends not checked) [SEQ ID NO: 91] — within 1.5-fold, 0.016 nM
- GCRTGTCTVQRLAHQIYQFTDKDKDNVAPRTNVGPNGY [SEQ ID NO: 84] — within 1.5-fold, 0.015 nM
- GCRFGTCTVQRLAHQIYQFTDKDKDNVAPRTNVSPNGY [SEQ ID NO: 98] — the same, 0.017 nM
- {C20 diacid-γGlu}-KCNTATCTVQRLAHQIAQFTDKNKDNVAPPTNVGSNG[Hyp]-NH2 (disulfide 2-7 (inferred); not fully specified; ends not checked) [SEQ ID NO: 87] — within 1.5-fold, 0.015 nM
- {C20 diacid-γGlu}-KCNTATCTVQRLAHQIYQFTNKDKDNVAPPTNVGSNG[Hyp]-NH2 (disulfide 2-7 (inferred); not fully specified; ends not checked) [SEQ ID NO: 82] — within 1.5-fold, 0.015 nM
- {C20 diacid-γGlu}-KCATATCTVQRLAEQIYQFTDKDKDNVAPPTNVGSNG[Hyp]-NH2 (disulfide 2-7 (inferred); not fully specified; ends not checked) [SEQ ID NO: 97] — within 1.5-fold, 0.016 nM
- KCNTATCATQRLANFLVHSSNNFGAIAPSTKVGSNGY [SEQ ID NO: 93] — within 1.5-fold, 0.016 nM
- {C20 diacid-γGlu}-KCNTATCTVARLAHQINQFTDKDKDNVAPPTNVGSNG[Hyp]-NH2 (disulfide 2-7 (inferred); not fully specified; ends not checked) [SEQ ID NO: 86] — within 1.5-fold, 0.015 nM
- {C20 diacid-γGlu}-KCNTATCTVQRLAHQIYQFADKDKDNVAPPTNVGSNG[Hyp]-NH2 (disulfide 2-7 (inferred); not fully specified; ends not checked) [SEQ ID NO: 83] — within 1.5-fold, 0.015 nM
- KCNFATCTVQRLAHQIYQFTDKDKDNVAPPTEVGSNG[Hyp]-NH2 (disulfide 2-7 (inferred); ends not checked) [SEQ ID NO: 10] — 2.4-fold lower, 0.007 nM
- {C20 diacid-γGlu}-RCGTATCATERLA[Aad]FLQRSSF[Sar]A[NMeI]LSSTEVGSNT[Hyp]-NH2 (disulfide 2-7 (inferred); not fully specified; ends not checked) [SEQ ID NO: 76] — within 1.5-fold, 0.014 nM
- {C20 diacid-γGlu}-KCNTATCTVQRLAHQIVQFTDKDKDNVAPPTNVGSNG[Hyp]-NH2 (disulfide 2-7 (inferred); not fully specified; ends not checked) [SEQ ID NO: 85] — within 1.5-fold, 0.015 nM
- GCRFGTCTVQRLAHQIYQFTDKDKDNVAPRTNVGPNG[Hyp]-NH2 (disulfide 2-7 (inferred); ends not checked) [SEQ ID NO: 90] — within 1.5-fold, 0.016 nM
- {C20 diacid-γGlu}-KCNTATCTVQRLAEQIAQFTDKDKDNVAPPTNVGSNG[Hyp]-NH2 (disulfide 2-7 (inferred); not fully specified; ends not checked) [SEQ ID NO: 78] — within 1.5-fold, 0.014 nM

Each binder was assayed against hAM1R (human, UniProt Q16602) (assay: cell-based or functional assay).

Point of comparison: GCRTGTCTVQRLAHQIYQFTDKDKDNVAPRTNVGPNGY [SEQ ID NO: 84], “hAM1R EC50 (cAMP)” value 2980 nM. Against it:
- {C20 diacid-γGlu}-KCNTATCTVQRLAHQIYQFTDKDKDNVAPPTNVGSNG[Hyp]-NH2 (disulfide 2-7 (inferred); not fully specified; ends not checked) [SEQ ID NO: 77] — higher, > 5000 nM
- RCNASTCTVNRLADQITQFSNKDKAQVSPPTEVGPNS[Hyp]-NH2 (disulfide 2-7 (inferred); ends not checked) [SEQ ID NO: 9] — higher, > 5000 nM
- GCRFGTCTVQRLAHQIYQFTDKDKDNVAPRTNIGPNG[Hyp]-NH2 (disulfide 2-7 (inferred); ends not checked) [SEQ ID NO: 81] — 22-fold lower, 138 nM
- {C20 diacid-γGlu}-KCNTSTCTVQRLAHQIAQFTDKDKDPVAPPTNVGSNG[Hyp]-NH2 (disulfide 2-7 (inferred); not fully specified; ends not checked) [SEQ ID NO: 88] — higher, > 5000 nM
- {C20 diacid-γGlu}-KCNTATCTVQRLAHQIAQFYDKDKDNVAPPTNVGSNG[Hyp]-NH2 (disulfide 2-7 (inferred); not fully specified; ends not checked) [SEQ ID NO: 94] — higher, > 5000 nM
- {C20 diacid-γGlu}-KCNTATCTVQRLAHQIAQFTDKDKDPVAPPTNVGSNG[Hyp]-NH2 (disulfide 2-7 (inferred); not fully specified; ends not checked) [SEQ ID NO: 92] — 3.2-fold lower, 933 nM
- {C20 diacid-γGlu}-RCQTATCATERLAHFLQRSSF[Sar]A[NMeI]LSSTEVGSNT[Hyp]-NH2 (disulfide 2-7 (inferred); not fully specified; ends not checked) [SEQ ID NO: 80] — 67-fold lower, 44.3 nM
- {C20 diacid-γGlu}-KCNTATCTVQRLAEQIYQFTDKDKDNVAPPTNVGSNT[Hyp]-NH2 (disulfide 2-7 (inferred); not fully specified; ends not checked) [SEQ ID NO: 96] — higher, > 5000 nM
- KCNTATCTVQRLAEQIYQFK([AEEA-AEEA-γGlu-C20 diacid])DKDKDNVAPPTNVGSNG[Hyp]-NH2 (disulfide 2-7 (inferred); not fully specified; ends not checked) [SEQ ID NO: 89] — higher, > 5000 nM
- {C20 diacid-γGlu}-KCNTATCTVQRLAHQIAQFTNKDKDNVAPPTNVGSNG[Hyp]-NH2 (disulfide 2-7 (inferred); not fully specified; ends not checked) [SEQ ID NO: 95] — higher, > 5000 nM
- {C20 diacid-γGlu}-KCNTATCTVQRLAHQIAQFSDKDKDNVAPPTNVGSNG[Hyp]-NH2 (disulfide 2-7 (inferred); not fully specified; ends not checked) [SEQ ID NO: 79] — higher, > 5000 nM
- KCNTSTCTVARLADQITQFSNKDKAQVSPPTEVGPNS[Hyp]-NH2 (disulfide 2-7 (inferred); ends not checked) [SEQ ID NO: 8] — higher, > 5000 nM
- {C20 diacid-γGlu}-KCNTATCTVQRLAHQIYQFTDKNKDNVAPPTNVGSNG[Hyp]-NH2 (disulfide 2-7 (inferred); not fully specified; ends not checked) [SEQ ID NO: 91] — 3.5-fold lower, 840 nM
- {C20 diacid-γGlu}-KCNTATCTVQRLAHQIYQFTDKDKDNVAPRTKVGSNG[Hyp] (disulfide 2-7 (inferred); ends not checked) [SEQ ID NO: 99] — 8.2-fold lower, 364 nM
- GCRFGTCTVQRLAHQIYQFTDKDKDNVAPRTNVSPNGY [SEQ ID NO: 98] — 45-fold lower, 66.9 nM
- {C20 diacid-γGlu}-KCNTATCTVQRLAHQIAQFTDKNKDNVAPPTNVGSNG[Hyp]-NH2 (disulfide 2-7 (inferred); not fully specified; ends not checked) [SEQ ID NO: 87] — higher, > 5000 nM
- {C20 diacid-γGlu}-KCNTATCTVQRLAHQIYQFTNKDKDNVAPPTNVGSNG[Hyp]-NH2 (disulfide 2-7 (inferred); not fully specified; ends not checked) [SEQ ID NO: 82] — 4.9-fold lower, 612 nM
- {C20 diacid-γGlu}-KCATATCTVQRLAEQIYQFTDKDKDNVAPPTNVGSNG[Hyp]-NH2 (disulfide 2-7 (inferred); not fully specified; ends not checked) [SEQ ID NO: 97] — higher, > 5000 nM
- KCNTATCATQRLANFLVHSSNNFGAIAPSTKVGSNGY [SEQ ID NO: 93] — higher, > 5000 nM
- {C20 diacid-γGlu}-KCNTATCTVARLAHQINQFTDKDKDNVAPPTNVGSNG[Hyp]-NH2 (disulfide 2-7 (inferred); not fully specified; ends not checked) [SEQ ID NO: 86] — higher, > 5000 nM
- {C20 diacid-γGlu}-KCNTATCTVQRLAHQIYQFADKDKDNVAPPTNVGSNG[Hyp]-NH2 (disulfide 2-7 (inferred); not fully specified; ends not checked) [SEQ ID NO: 83] — 3.7-fold lower, 815 nM
- KCNFATCTVQRLAHQIYQFTDKDKDNVAPPTEVGSNG[Hyp]-NH2 (disulfide 2-7 (inferred); ends not checked) [SEQ ID NO: 10] — 5.4-fold lower, 552 nM
- {C20 diacid-γGlu}-RCGTATCATERLA[Aad]FLQRSSF[Sar]A[NMeI]LSSTEVGSNT[Hyp]-NH2 (disulfide 2-7 (inferred); not fully specified; ends not checked) [SEQ ID NO: 76] — higher, > 5000 nM
- {C20 diacid-γGlu}-KCNTATCTVQRLAHQIVQFTDKDKDNVAPPTNVGSNG[Hyp]-NH2 (disulfide 2-7 (inferred); not fully specified; ends not checked) [SEQ ID NO: 85] — higher, > 5000 nM
- GCRFGTCTVQRLAHQIYQFTDKDKDNVAPRTNVGPNG[Hyp]-NH2 (disulfide 2-7 (inferred); ends not checked) [SEQ ID NO: 90] — 51-fold lower, 58.5 nM
- {C20 diacid-γGlu}-KCNTATCTVQRLAEQIAQFTDKDKDNVAPPTNVGSNG[Hyp]-NH2 (disulfide 2-7 (inferred); not fully specified; ends not checked) [SEQ ID NO: 78] — higher, > 5000 nM
